Assay results from doi:10.1101/474478 (bioRxiv, 2018).

Biological target: the molecule itself
Experiment: crystal structure

B1: mouse Nudt12 catalytic domain (residues 126-462), E219A/E220A/E221A triple mutant (domain or fragment, UniProt Q9DCN1 126-462, looked up)
chain: LDRRSDKRNNSDWLQAKESHPTTVYLLFSDLNPLVTLGGNKESSQQPEVRLCQLNYPDVKGYLAQPEKITLVFLGVELEMRKGSPAQAGGVPEAAADGLVAWFALGIEPGAAEEFKQRHENCYFLHPPMPALLQLKEKEAGVVAQARSVLAWHSRYKFCPTCGSATKIEEGGYKRVCVRETCPSLQGVHNTSYPRVDPVVIMQVIHPDGTKCLLGRQKRFPPGMFTCLAGFIEPGETIEDAVRREVEEESGVKVGHVQYVSCQPWPMPSSLMIGCLAVAVSTEIKVDKNEIEDARWFTREQVVDVLTKGKQQAFFVPPSRAIAHQLIKHWVGMNPNL
**Q.** How did the “stoichiometry N” value turn out when B1 was run?
**A.** 2
